In series [1] the test system is S. aureus Sp10. Briefly: MIC assay over several culture cycles (resistance development). Type of series: cell-based, Staphylococcus aureus. From the text:
Becker et al. (Sci Rep. 2016 Apr. 28; 6:25063) reported construction of fusion protein L-K with reduced incidence of resistant S. aureus strain development. In an attempt to provide other improved fusion proteins against S. aureus, the inventors generated two fusion proteins, each comprising the CHAP domain of LysK endolysin, the M23 endopeptidase domain of lysostaphin; and the cell wall binding domain (CBD) of ALE-1. In addition, one of the fusion proteins did comprise the cathepsin G (77-83) peptide (SEQ ID NO:94), the other the cationic peptide KNK (SEQ ID NO:38). The resulting fusion proteins (SEQ ID NO:105 and SEQ ID NO: 107) were assayed for antibacterial activity and resistance development. For this purpose MIC (minimal inhibitory concentration) assays (see below) were carried out for several culture cycles.
MIC assay S. aureus Sp10 was grown in (Luria-Bertani) medium and diluted 1:10 in Mueller-Hinton medium. At an optical density OD600 of about 0.6, bacteria were diluted in the same medium 1:10 followed by a 1:500 dilution. Protein buffer (20 mM HEPES, 500 mM NaCl, pH 7.4) and proteins or gentamycin were pipetted into a 96 well plate, using different concentrations of proteins/gentamycin and an end volume of 20 μl. The proteins used were the fusion proteins according to SEQ ID NO:105 and SEQ ID NO: 107. 180 μl of bacterial cells or a medium (Mueller-Hinton) control were given to the 96 well plate and mixed. The plate was incubated for 18-22 hours at 37° C. and the bacterial growth was determined measuring the OD600 values of the wells. The well with the lowest concentration of protein/gentamycin showing the same OD600 value as the medium control was taken as MIC. For the next cycle, the bacterial solution from the sub-MIC well was used. The sub-MIC well is the well in which the next lower concentration to the MIC concentration was tested, i.e. the well with the highest concentration of protein/gentamycin but still OD600 above the medium control. For further cycles of the resistance assay, the bacteria from this sub-MIC well of the previous cycle were taken for the next over-night culture.

The subject of series [2] is Staphylococcus aureus DSM 346. Put plainly: Thermal stability assay (standard MIC assay after heat incubation). Type of series: cell-based. Conditions: for MIC: protein 0.3 mg/ml, DSM 346; for thermal stability: in comparison to the unmodified fusion protein. How it is done:
In addition, thermal stability was assessed for two of said mutants in comparison to the unmodified fusion protein. The thermal stability assay was carried out with the strain Staphylococcus aureus DSM 346. The proteins were diluted to a concentration of 0.3 mg/ml followed by an incubation for 20 minutes at different temperatures (see table 8 below). A standard MIC assay was carried out after this incubation time.

The mark [3] stands for this setting: cycle 1 (initial MIC), S. aureus Sp10.
Setting [4] is: cycle 1, fold change over initial MIC (cycle 1).
Where [5] appears, read: cycle 6, fold change over initial MIC (cycle 1).
Where [6] appears, read: cycle 12, fold change over initial MIC (cycle 1).
The mark [7] stands for this setting: after 20 minutes incubation at 44.6° C.
Setting [8] is: after 20 minutes incubation at 47.1° C.
[9] abbreviates: after 20 minutes incubation at 49.7° C.
Where [10] appears, read: after 20 minutes incubation at 52.3° C.
[11] abbreviates: after 20 minutes incubation at 54.9° C.
The mark [12] stands for this setting: after 20 minutes incubation at 57.4° C.
Where [13] appears, read: after 20 minutes incubation at 60° C.
The mark [14] stands for this setting: after 20 minutes incubation at RT.

Where only a bound is given, the exact number is not on record here.

Regarding gentamycin [reference compound], the “Minimal inhibitory concentration (MIC)” value is 0.8 µg/mL in series [1] (setting [3]); 4 µg/mL in series [1] (cycle 6, S. aureus Sp10); 6 µg/mL in series [1] (cycle 12, S. aureus Sp10). In addition, the entries for the “Fold change of MIC” value in series [1] (setting [4]), in series [1] (setting [5]) and in series [1] (setting [6]) were 1, 5 and 7.5, respectively.

B1: SEQ ID NO: 105: fusion protein: CHAP domain of LysK, M23 endopeptidase domain of lysostaphin, CBD of ALE-1 and a further peptide (cathepsin G (77-83) or KNK) (protein)
chain: MAKTQAEINKRLDAYAKGTVDSPYRVKKATSYDPSFGVMEAGAIDADGYYHAQCQDLITDYVLWLTDNKVRTWGNAKDQIKQSYGTGFKIHENKPSTVPKKGWIAVFTSGSYEQWGHIGIVYDGGNTSTFTILEQNWNGYANKKPTKRVDNYYGLTHFIEIPVKAGTTVKKETAKKSATSHEHSAQWLNNYKKGYGYGPYPLGINGGMHYGVDFFMNIGTPVKAISSGKIVEAGWSNYGGGNQIGLIENDGVHRQWYMHLSKYNVKVGDYVKAGQIIGWSGSTGYSTAPHLHFQRMVNSFSNSTAQDPMPFLKSAGYGKAGGTVTPTPNPGNGYKTNKYGTLYKSESASFTANTDIITRLTGPFRSMPQSGVLRKGLTIKYDEVMKQDGHVWVGYNTNSGKRVYLPVRTWNESTGELGPLWGTIKHHHHHHLKHPQYNQR
modifications: Fusion protein comprising CHAP domain of LysK endolysin, M23 endopeptidase domain of lysostaphin, cell wall binding domain of ALE-1, His6-tag and synthetic peptide HPQYNQR
For B1, the “Minimal inhibitory concentration (MIC)” value in series [1] (setting [3]) was determined as 4 µg/mL; in series [1] (cycle 6, S. aureus Sp10), 4 µg/mL; in series [1] (cycle 12, S. aureus Sp10) it was 6 µg/mL. The “Fold change of MIC” value in series [1] (setting [4]) is 1; in series [1] (setting [5]), 1; in series [1] (setting [6]), 1.5.

B2: Clone 11: variant of SEQ ID NO: 107 with mutations K17E, H51Q (protein)
chain: MAKTQAEINKRLDAYAEGTVDSPYRVKKATSYDPSFGVMEAGAIDADGYYQAQCQDLITDYVLWLTDNKVRTWGNAKDQIKQSYGTGFKIHENKPSTVPKKGWIAVFTSGSYEQWGHIGIVYDGGNTSTFTILEQNWNGYANKKPTKRVDNYYGLTHFIEIPVKAGTTVKKETAKKSATSHEHSAQWLNNYKKGYGYGPYPLGINGGMHYGVDFFMNIGTPVKAISSGKIVEAGWSNYGGGNQIGLIENDGVHRQWYMHLSKYNVKVGDYVKAGQIIGWSGSTGYSTAPHLHFQRMVNSFSNSTAQDPMPFLKSAGYGKAGGTVTPTPNPGNGYKTNKYGTLYKSESASFTANTDIITRLTGPFRSMPQSGVLRKGLTIKYDEVMKQDGHVWVGYNTNSGKRVYLPVRTWNESTGELGPLWGTIKGSHHHHHHGGSKNK
modifications: Fusion protein comprising CHAP domain of LysK endolysin, M23 endopeptidase domain of lysostaphin, cell wall binding domain of ALE-1, His6-tag and synthetic peptide KNK
As for B2, the minimum inhibitory concentration (MIC) in series [2] (setting [7]) was 6 µg/mL; in series [2] (setting [8]), 10 µg/mL; in series [2] (setting [9]), 10 µg/mL; in series [2] (setting [10]), 16 µg/mL; in series [2] (setting [11]), >30 µg/mL; in series [2] (setting [12]) it was >30 µg/mL. Further, the figures for the minimum inhibitory concentration (MIC) in series [2] (setting [13]) and in series [2] (setting [14]) were >30 µg/mL and 4 µg/mL, respectively. In addition, the thermal stability entry in series [2] is listed as “increased thermal stability”.

B3: Clone 15: variant of SEQ ID NO: 107 with mutations K17E, H51Q, K28N, T86A, G154S (protein)
chain: MAKTQAEINKRLDAYAEGTVDSPYRVKNATSYDPSFGVMEAGAIDADGYYQAQCQDLITDYVLWLTDNKVRTWGNAKDQIKQSYGAGFKIHENKPSTVPKKGWIAVFTSGSYEQWGHIGIVYDGGNTSTFTILEQNWNGYANKKPTKRVDNYYSLTHFIEIPVKAGTTVKKETAKKSATSHEHSAQWLNNYKKGYGYGPYPLGINGGMHYGVDFFMNIGTPVKAISSGKIVEAGWSNYGGGNQIGLIENDGVHRQWYMHLSKYNVKVGDYVKAGQIIGWSGSTGYSTAPHLHFQRMVNSFSNSTAQDPMPFLKSAGYGKAGGTVTPTPNPGNGYKTNKYGTLYKSESASFTANTDIITRLTGPFRSMPQSGVLRKGLTIKYDEVMKQDGHVWVGYNTNSGKRVYLPVRTWNESTGELGPLWGTIKGSHHHHHHGGSKNK
modifications: Fusion protein comprising CHAP domain of LysK endolysin, M23 endopeptidase domain of lysostaphin, cell wall binding domain of ALE-1, His6-tag and synthetic peptide KNK
Turning to B3, the MIC in series [2] (setting [7]) was 4 µg/mL; in series [2] (setting [8]), 4 µg/mL; in series [2] (setting [9]), 4 µg/mL; in series [2] (setting [10]), 4 µg/mL; in series [2] (setting [11]), 4 µg/mL; in series [2] (setting [12]), 6 µg/mL. For the same molecule, the MIC in series [2] (setting [13]) stood at 8 µg/mL; in series [2] (setting [14]), 4 µg/mL. Moreover, the thermal stability result in series [2] is recorded as “increased thermal stability”.

B4: SEQ ID NO: 107: fusion protein: CHAP domain of LysK, M23 endopeptidase domain of lysostaphin, CBD of ALE-1 and a further peptide (cathepsin G (77-83) or KNK) (protein)
chain: MAKTQAEINKRLDAYAKGTVDSPYRVKKATSYDPSFGVMEAGAIDADGYYHAQCQDLITDYVLWLTDNKVRTWGNAKDQIKQSYGTGFKIHENKPSTVPKKGWIAVFTSGSYEQWGHIGIVYDGGNTSTFTILEQNWNGYANKKPTKRVDNYYGLTHFIEIPVKAGTTVKKETAKKSATSHEHSAQWLNNYKKGYGYGPYPLGINGGMHYGVDFFMNIGTPVKAISSGKIVEAGWSNYGGGNQIGLIENDGVHRQWYMHLSKYNVKVGDYVKAGQIIGWSGSTGYSTAPHLHFQRMVNSFSNSTAQDPMPFLKSAGYGKAGGTVTPTPNPGNGYKTNKYGTLYKSESASFTANTDIITRLTGPFRSMPQSGVLRKGLTIKYDEVMKQDGHVWVGYNTNSGKRVYLPVRTWNESTGELGPLWGTIKGSHHHHHHGGSKNK
modifications: Fusion protein comprising CHAP domain of LysK endolysin, M23 endopeptidase domain of lysostaphin, cell wall binding domain of ALE-1, His6-tag and synthetic peptide KNK
Consider B4, for which the “Minimal inhibitory concentration (MIC)” value in series [1] (setting [3]) stood at 4 µg/mL; in series [1] (cycle 6, S. aureus Sp10) it was 4 µg/mL; in series [1] (cycle 12, S. aureus Sp10) it was 6 µg/mL. Besides, the “Fold change of MIC” value in series [1] (setting [4]) came to 1; in series [1] (setting [5]) it was 1; in series [1] (setting [6]), 1.5. Besides, the MIC in series [2] (setting [7]) is 20 µg/mL; in series [2] (setting [8]) it was 25 µg/mL; in series [2] (setting [9]), 30 µg/mL; in series [2] (setting [10]), 30 µg/mL; in series [2] (setting [11]) it was >30 µg/mL; in series [2] (setting [12]), >30 µg/mL. Moreover, the minimum inhibitory concentration (MIC) was >30 µg/mL in series [2] (setting [13]) and 6 µg/mL in series [2] (setting [14]).

As a reminder, the MIC is the lowest concentration that inhibits growth of the organism. Low values mean a more susceptible organism, high ones a less susceptible organism.
